According to paper PMC4609494:

Legend:
[1] = target: TNF receptor-2 (TNFR-2), rat (rat) (UniProt Q80WY6)
[2] = target: TNF receptor-2 (TNFR-2), rat (rat) (UniProt Q80WY6); remark: listed apart in the source
[3] = target: TNF receptor-1 (TNFR-1), rat (rat) (UniProt P22934)
[4] = target: TNF receptor-1 (TNFR-1), rat (rat) (UniProt P22934); remark: listed apart in the source

UniProt Q80WY6, sequence (Q80WY6 23-474): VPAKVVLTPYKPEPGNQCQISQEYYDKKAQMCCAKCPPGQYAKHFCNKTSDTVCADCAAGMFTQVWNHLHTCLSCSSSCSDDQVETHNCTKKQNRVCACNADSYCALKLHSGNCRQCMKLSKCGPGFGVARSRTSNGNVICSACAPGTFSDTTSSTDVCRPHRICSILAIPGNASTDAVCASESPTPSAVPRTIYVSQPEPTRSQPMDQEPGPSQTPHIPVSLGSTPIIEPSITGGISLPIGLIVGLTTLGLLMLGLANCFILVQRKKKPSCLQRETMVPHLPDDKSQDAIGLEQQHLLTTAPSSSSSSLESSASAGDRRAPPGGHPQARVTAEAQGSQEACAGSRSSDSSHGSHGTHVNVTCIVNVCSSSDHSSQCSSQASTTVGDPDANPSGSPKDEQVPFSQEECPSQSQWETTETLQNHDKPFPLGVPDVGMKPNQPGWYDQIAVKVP
UniProt P22934, sequence (P22934 30-461): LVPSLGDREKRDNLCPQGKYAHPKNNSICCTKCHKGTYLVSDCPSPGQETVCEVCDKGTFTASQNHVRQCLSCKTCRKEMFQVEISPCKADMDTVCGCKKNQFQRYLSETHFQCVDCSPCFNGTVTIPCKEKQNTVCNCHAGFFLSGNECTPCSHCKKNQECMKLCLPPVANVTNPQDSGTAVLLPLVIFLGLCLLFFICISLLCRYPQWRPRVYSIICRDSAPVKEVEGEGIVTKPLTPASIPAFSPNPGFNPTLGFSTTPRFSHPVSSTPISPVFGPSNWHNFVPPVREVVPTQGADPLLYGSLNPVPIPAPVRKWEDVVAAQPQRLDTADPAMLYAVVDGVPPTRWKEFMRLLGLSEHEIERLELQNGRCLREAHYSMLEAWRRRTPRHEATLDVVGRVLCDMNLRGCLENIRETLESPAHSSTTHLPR

Row | Substance | increase of the TTX-resistant NaV1.8 current I NaV(1.8) in small rat DRG neurons, whole-cell patch clamp, repetitive depolarization to 0 mV, D145 100 pg, 300 s after treatment [1] [%] | increase of the voltage-gated sodium channel current I Na(V) in small rat DRG neurons, whole-cell patch clamp, repetitive depolarization to 0 mV, D145 10 pg (dose-dependent over 1-100 pg) [2] [%] | increase of the TTX-resistant NaV1.8 current I NaV(1.8) in small rat DRG neurons, whole-cell patch clamp, repetitive depolarization to 0 mV, R32W 100 pg, 300 s after treatment [3] [%] | increase of the voltage-gated sodium channel current I Na(V) in small rat DRG neurons, whole-cell patch clamp, repetitive depolarization to 0 mV, R32W 10 pg (dose-dependent over 1-100 pg) [4] [%]
1 | TNF mutant protein D145 (D143N/A145R), selective TNFR-2 agonist (ligand) | 14.5 | 44.9 | – | –
2 | TNF mutant protein R32W (R32W/S86T), selective TNFR-1 agonist (ligand) | – | – | 18.9 | 27.2
